Assay [1] addresses PKC-β (endogenous, IMR-32 lysate) (human) (UniProt P05771). As to the kind of experiment: WB competition Protocol A, IMR-32 lysate, vs anti-PKC-β Ab; 75 µg peptide.
Assay [2] shares this target. The experiment in a line: WB competition Protocol A, IMR-32 lysate, vs anti-PKC-β Ab; 300 µg peptide.
Assay [3] concerns the target PKC-ζ, purified isoform (UniProt Q05513). As to the kind of experiment: competition ELISA on coated purified PKC-ζ vs anti-PKC ζ antibody; PRE 50 µM. A general note: An ELISA detects its analyte on a solid surface through an enzyme-linked reagent.
For assay [4] the target is unchanged. As to the kind of experiment: competition ELISA on coated purified PKC-ζ vs anti-PKC ζ antibody; PRE 100 µM.
The target is the same in assay [5]. The experiment in a line: competition ELISA on coated purified PKC-ζ vs anti-PKC ζ antibody; PRE 200 µM.
The target in a further assay is PKC-δ, Q05655. The experiment in a line: cell-based or functional assay.
Sequence of PKC-δ, Q05655 (Q05655 whole entry, stated change not applied): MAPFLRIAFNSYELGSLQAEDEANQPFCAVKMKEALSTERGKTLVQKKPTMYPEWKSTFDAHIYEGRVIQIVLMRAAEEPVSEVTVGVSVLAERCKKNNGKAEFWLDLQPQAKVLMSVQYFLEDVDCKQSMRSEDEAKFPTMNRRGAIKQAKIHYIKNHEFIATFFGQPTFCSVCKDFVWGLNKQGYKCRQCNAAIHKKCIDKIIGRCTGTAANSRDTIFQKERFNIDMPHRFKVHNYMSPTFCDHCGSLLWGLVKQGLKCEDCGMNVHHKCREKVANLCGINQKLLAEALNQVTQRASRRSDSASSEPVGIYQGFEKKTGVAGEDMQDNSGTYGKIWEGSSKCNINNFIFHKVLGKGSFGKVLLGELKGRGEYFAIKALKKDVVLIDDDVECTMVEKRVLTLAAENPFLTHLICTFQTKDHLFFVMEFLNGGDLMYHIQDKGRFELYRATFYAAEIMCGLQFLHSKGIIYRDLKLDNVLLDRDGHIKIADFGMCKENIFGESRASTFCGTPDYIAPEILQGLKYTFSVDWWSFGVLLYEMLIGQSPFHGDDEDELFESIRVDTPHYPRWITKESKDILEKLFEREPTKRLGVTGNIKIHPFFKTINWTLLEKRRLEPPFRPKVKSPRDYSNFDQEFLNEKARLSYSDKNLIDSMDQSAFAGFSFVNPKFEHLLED
In assay [6] the target is PKC-β (endogenous, IMR-32 lysate) (human) (UniProt P05771). The experiment in a line: WB competition Protocol A, IMR-32 lysate, vs anti-PKC-β Ab; 600 µg peptide.
Sequence of PKC-β (endogenous, IMR-32 lysate) (human) (P05771 2-671): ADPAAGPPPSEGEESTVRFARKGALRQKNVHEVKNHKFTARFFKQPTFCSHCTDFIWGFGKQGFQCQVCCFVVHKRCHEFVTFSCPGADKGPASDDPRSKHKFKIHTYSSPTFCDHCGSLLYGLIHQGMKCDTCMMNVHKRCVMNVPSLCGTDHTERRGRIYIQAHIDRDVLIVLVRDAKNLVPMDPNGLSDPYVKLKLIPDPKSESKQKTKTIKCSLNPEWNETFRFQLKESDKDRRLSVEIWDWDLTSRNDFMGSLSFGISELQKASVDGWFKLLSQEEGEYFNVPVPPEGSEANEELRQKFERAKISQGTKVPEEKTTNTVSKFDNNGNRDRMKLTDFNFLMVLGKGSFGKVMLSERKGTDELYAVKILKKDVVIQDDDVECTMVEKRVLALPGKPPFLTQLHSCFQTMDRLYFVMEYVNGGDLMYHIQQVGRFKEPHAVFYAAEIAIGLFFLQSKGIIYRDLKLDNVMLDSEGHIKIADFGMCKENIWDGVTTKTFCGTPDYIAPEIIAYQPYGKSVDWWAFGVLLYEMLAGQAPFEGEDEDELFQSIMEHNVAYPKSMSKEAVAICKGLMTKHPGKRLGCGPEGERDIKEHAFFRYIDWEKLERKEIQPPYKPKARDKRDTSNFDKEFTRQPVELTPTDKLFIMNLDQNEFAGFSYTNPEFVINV
Assay [7] has the same target. The experiment in a line: WB competition Protocol B, IMR-32 extract, vs anti-PKC-β Ab; 100 µg peptide.
Assay [8] shares this target. As to the kind of experiment: WB competition Protocol B, IMR-32 extract, vs anti-PKC-β Ab; 200 µg peptide.
For assay [9] the target is unchanged. As to the kind of experiment: WB competition Protocol B, IMR-32 extract, vs anti-PKC-β Ab; 300 µg peptide.
Assay [10] deals with PKC-βI (purified isoform) (Homo sapiens (Human)), P05771. The experiment in a line: competitive ELISA, coated purified PKC-βI, vs anti-PKC βI (SC-209); PRE 50 µM. The settings on record: remark: other sources report otherwise.
Sequence of PKC-βI (purified isoform) (Homo sapiens (Human)), P05771 (P05771 2-671 limits assumed): as the sequence (P05771 2-671) above
The target is the same in assay [11]. The experiment in a line: competitive ELISA, coated purified PKC-βI, vs anti-PKC βI (SC-209); PRE 100 µM. The settings on record: remark: other sources report otherwise.
For assay [12] the target is unchanged. The experiment in a line: competitive ELISA, coated purified PKC-βI, vs anti-PKC βI (SC-209); PRE 200 µM. The settings on record: remark: other sources report otherwise.
Assay [13] addresses PKC-βI (purified isoform) (Homo sapiens (Human)) (UniProt P05771). The experiment in a line: competitive ELISA, coated purified PKC-βI, vs anti-PKC βI (SC-209); PRE 50 µM.
For assay [14] the target is unchanged. As to the kind of experiment: competitive ELISA, coated purified PKC-βI, vs anti-PKC βI (SC-209); PRE 100 µM.
The target is the same in assay [15]. As to the kind of experiment: competitive ELISA, coated purified PKC-βI, vs anti-PKC βI (SC-209); PRE 200 µM.
In assay [16] the target is PKC-δ, purified isoform, Q05655. As to the kind of experiment: cell-based or functional assay.
Sequence of PKC-δ, purified isoform, Q05655 (Q05655 whole entry, stated change not applied, canonical isoform): as the sequence (Q05655 whole entry, stated change not applied) above
In assay [17] the target is PKC-ζ, purified isoform, Q05513. As to the kind of experiment: cell-based or functional assay.
Sequence of PKC-ζ, purified isoform, Q05513 (Q05513 whole entry, canonical isoform): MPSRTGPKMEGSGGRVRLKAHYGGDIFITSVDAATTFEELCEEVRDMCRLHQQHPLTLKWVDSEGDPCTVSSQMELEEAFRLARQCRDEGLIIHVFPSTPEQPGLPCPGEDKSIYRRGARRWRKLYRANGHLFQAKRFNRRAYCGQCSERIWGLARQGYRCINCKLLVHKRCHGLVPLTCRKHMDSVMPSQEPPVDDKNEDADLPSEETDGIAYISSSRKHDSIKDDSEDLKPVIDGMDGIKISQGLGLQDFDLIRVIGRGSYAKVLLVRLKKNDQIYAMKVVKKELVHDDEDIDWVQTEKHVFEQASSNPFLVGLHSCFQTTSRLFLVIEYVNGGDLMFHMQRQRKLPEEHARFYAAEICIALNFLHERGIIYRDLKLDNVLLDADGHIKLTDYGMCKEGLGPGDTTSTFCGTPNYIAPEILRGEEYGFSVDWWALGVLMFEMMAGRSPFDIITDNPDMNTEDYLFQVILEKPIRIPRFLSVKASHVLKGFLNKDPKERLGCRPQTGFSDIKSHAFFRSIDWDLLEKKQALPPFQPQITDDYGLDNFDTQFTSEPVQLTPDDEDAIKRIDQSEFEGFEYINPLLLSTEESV

Where no end group is shown, it is not given here.

Sequence of PKC-ζ, purified isoform (Q05513 whole entry, canonical isoform): as above
Sequence of PKC-βI (purified isoform) (Homo sapiens (Human)) (P05771 2-671 limits assumed): as the sequence (P05771 2-671) above

B1: PRE 1 (peptide)
peptide: RRKKGGKDFVVKR
In the case of B1, in [1], the Band Intensity was found to be 0.825, the Inhibition (%) worked out at 28.9% and the Relative Intensity (%) stood at 71.1%. Moreover, in [2], the Band Intensity was 0.528, the Inhibition (%) worked out at 54.5% and the Relative Intensity (%) was found to be 45.5%.

B2: PRE 11 (peptide)
peptide: Ac-RDAQNLIGISI-NH2
Turning to B2, the relative binding capacity came out at 0% with PKC-ζ, purified isoform [3]; 0% with PKC-ζ, purified isoform [4]; 0% with PKC-ζ, purified isoform [5].

B3: PRE 13 (peptide)
peptide: Ac-RDAQNLI-NH2
For the molecule B3, the relative binding capacity with PKC-ζ, purified isoform [3] stood at 0%; in the assay with PKC-ζ, purified isoform [4] it was 0%; with PKC-ζ, purified isoform [5], 4.29%.

B4: Compound TIM 18 (PRE 3 and PKI 4) (peptide)
chain: Ac-FRRCFRLGGGGGGGAKGIQEVKGGDAQNLIGISI-NH2
In the assay with PKC-δ, Q05655, B4 had a % Inhibition of kinase activity (Kinase-Glo), compound at 5.0 µM of 56.3% and a % Inhibition of kinase activity (Kinase-Glo), compound at 30.0 µM of 85.1%.

B5: PRE 12 (peptide)
peptide: Ac-KDAQNLI-NH2
With B5, the relative binding capacity in the assay with PKC-ζ, purified isoform [3] came out at 4.2%; with PKC-ζ, purified isoform [4] it was 8.77%; with PKC-ζ, purified isoform [5], 0.33%.

B6: PRE 3 (peptide)
peptide: Ac-AKGIQEVKGGDAQNLIGISI-NH2
With B6, the Band Intensity was 1.9 in assay [1]; 1.9 in assay [2]; 1.85 in [6]; 0 in assay [7]; 0 in assay [8]; 0 in assay [9]. In addition, the Inhibition (%) was found to be 0% in assay [1]; 0% in [2]; 0% in assay [6]; 100% in assay [7]; 100% in [8]; 100% in assay [9]. Also, the Relative Intensity (%) in assay [1] came to 102%; in assay [2], 102%; in assay [6], 99.6%; in assay [7], 0%; in [8], 0%; in assay [9], 0%. Moreover, the relative binding capacity is 14% with PKC-ζ, purified isoform [3]; 23.9% in the assay with PKC-ζ, purified isoform [4]; 29.1% with PKC-ζ, purified isoform [5].

B7: PRE 8 (peptide)
peptide: ILEDKGGDAQNLIGISI
In the case of B7, the relative binding capacity (100-%n, DMSO subtracted) in assay [10], in assay [11] and in assay [12] was 0% throughout.

B8: Compound TIM 20 (PRE 1 and PKI 4) (peptide)
chain: Ac-FRRCFRLGGGGGGGRRKKGGKDFVVKR-NH2
As for B8, in the assay with PKC-δ, Q05655, the % Inhibition of kinase activity (Kinase-Glo), compound at 5.0 µM is 46% and the % Inhibition of kinase activity (Kinase-Glo), compound at 30.0 µM was found to be 45.4%.

B9: PRE 7 (peptide)
peptide: Ac-ISIGILQNADK-NH2
Turning to B9, the relative binding capacity in the assay with PKC-ζ, purified isoform [3] was determined as 1.83%; in the assay with PKC-ζ, purified isoform [4], 0%; with PKC-ζ, purified isoform [5], 1.54%. Also, the relative binding capacity (100-%n, DMSO subtracted) in [13] amounted to 2.1%; in assay [14] it was 0%; in assay [15] it was 0%.

B10: PRE 2 (peptide)
peptide: KDAQNLIGISL-NH2
Take B10: the Band Intensity was found to be 0.8 in assay [1]; 0.403 in assay [2]; 0.0322 in [7]; 0 in [8]; 0 in [9]. The Inhibition (%) turned out to be 31% in assay [1]; 65.3% in assay [2]; 54.7% in assay [7]; 100% in assay [8]; 100% in assay [9]. In addition, the Relative Intensity (%) was found to be 69% in assay [1]; 34.7% in assay [2]; 45.3% in assay [7]; 0% in [8]; 0% in assay [9].

B11: compound PKI 3 (peptide)
peptide: FRRK(adenine PNA)FRL
For B11, in [16], the % Inhibition of PKC activity at 150 µM worked out at 32%, the % Inhibition of PKC activity at 300 µM turned out to be 41% and the % Inhibition of PKC activity at 600 µM was found to be 70%. In assay [17], this molecule came in with a % Inhibition of PKC activity at 150 µM of 37%, a % Inhibition of PKC activity at 300 µM of 40% and a % Inhibition of PKC activity at 600 µM of 56%.

B12: PRE 6 (peptide)
peptide: Ac-KDANQLIGISI-NH2
For B12, the relative binding capacity was 0% in the assay with PKC-ζ, purified isoform [3]; 0% in the assay with PKC-ζ, purified isoform [4]; 0% with PKC-ζ, purified isoform [5].

B13: compound PKI 4 (peptide)
peptide: FRRCFRL
In assay [16], B13 yielded a % Inhibition of PKC activity at 150 µM of 90%, a % Inhibition of PKC activity at 300 µM of 90% and a % Inhibition of PKC activity at 600 µM of 95%. Besides, in assay [17], the % Inhibition of PKC activity at 150 µM was determined as 60%, the % Inhibition of PKC activity at 300 µM was 60% and the % Inhibition of PKC activity at 600 µM was determined as 58%.

B14: PRE 4 (peptide)
peptide: Ac-KDAQNLIGISI-NH2
In the case of B14, the relative binding capacity in the assay with PKC-ζ, purified isoform [3] came out at 0%; in the assay with PKC-ζ, purified isoform [4], 0%; with PKC-ζ, purified isoform [5] it was 5.85%.

B15: PRE 5 (peptide)
peptide: Ac-AKGIQEVKGGKDAQNLIGISI-NH2
Regarding B15, the relative binding capacity in the assay with PKC-ζ, purified isoform [3] came to 0%; with PKC-ζ, purified isoform [4] it was 0%; with PKC-ζ, purified isoform [5], 0%.

B16: PRE 10 (peptide)
peptide: Ac-ISIGILNQADK-NH2
Turning to B16, the relative binding capacity with PKC-ζ, purified isoform [3] worked out at 0%; with PKC-ζ, purified isoform [4] it was 0%; with PKC-ζ, purified isoform [5] it was 0%.

The values above are taken from patent publication US20110039770A1, “INHIBITORS OF PROTEIN KINASE C ISOFORMS AND USES THEREOF” (PHARMAGAP INC., priority 2005, published 2011).
